Data published in US20200338203A1 (Bicycle, published 2020).
Numbered stars: 1 amine (or outer) side, 2 acyl side, 3 side chain; on linkers, the order of the positions; unused ones are H or OH. Bridge positions count the residues as written; N and C are the ends. Square brackets hold non-standard residues; d marks the D form. Ends that are not written are not given here. 1Nal = N[C@@H](Cc1cccc2ccccc12)C(=O)O; TBMB = c1c(C[*:1])cc(C[*:3])cc1C[*:2]; hArg = N=C(N)NCCCC[C@H](N)C(=O)O; Tle = CC(C)(C)[C@H](N)C(=O)O; Aib = CC(C)(N)C(=O)O; βAla = NCCC(=O)O; Sar = CNCC(=O)O

Molecular target: T1, Human EphA2 (Ecto) (Human, UniProt P29317 24-537)
T1 construct: extracellular domain
Experiment: FP competition; competitor Compound 18
Description: (§1) Peptides without a fluorescent tag were tested in competition with a peptide with a fluorescent tag and a known Kd (Table 2). Peptides were diluted to an appropriate concentration in assay buffer as described in the direct binding assay with a maximum of 5% DMSO, then serially diluted 1 in 2. Five μL of diluted peptide was added to the plate followed by 10 μL of human or mouse EphA2 (Table 1) at a fixed concentration which was dependent on the fluorescent peptide used (Table 2), then 10 μL fluorescent peptide added. Measurements were conducted as for the direct binding assay, however the gain was determined prior to the first measurement.

T1 sequence (P29317 24-537): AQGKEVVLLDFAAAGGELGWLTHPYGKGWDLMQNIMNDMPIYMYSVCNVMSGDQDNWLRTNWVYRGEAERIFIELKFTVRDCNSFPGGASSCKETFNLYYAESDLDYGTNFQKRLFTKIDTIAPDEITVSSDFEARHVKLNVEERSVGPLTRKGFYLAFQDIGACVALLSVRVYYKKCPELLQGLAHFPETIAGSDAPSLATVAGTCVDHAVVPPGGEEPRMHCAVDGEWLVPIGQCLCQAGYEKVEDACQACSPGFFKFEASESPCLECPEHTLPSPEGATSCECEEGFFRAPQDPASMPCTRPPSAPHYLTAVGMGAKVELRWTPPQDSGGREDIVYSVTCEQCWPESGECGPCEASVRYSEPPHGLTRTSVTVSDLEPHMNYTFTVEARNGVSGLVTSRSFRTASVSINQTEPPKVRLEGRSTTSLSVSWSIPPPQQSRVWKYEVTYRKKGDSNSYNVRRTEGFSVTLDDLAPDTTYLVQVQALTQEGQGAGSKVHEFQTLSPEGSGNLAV

Row | Binder | Ki [nM]
1 | ACPWGPFWCPVNRPGCA (linker 2-9-16 via TBMB) [Compound 69] | 107
2 | [Sar][Sar]ACPWGPAWCPVNRPGC (linker 4-11-18 via TBMB) [Compound 83] | 199
3 | ACPWGPFWCPVARPGC (printed: Sar2-ACPWGPFWCPVARPGC; TBMB on the 3 Cys) [Compound 101] | 293
4 | [Sar][Sar]ACPWGPFWCPVNRAGC (linker 4-11-18 via TBMB) [Compound 104] | 124
5 | [Sar][Sar]ACPWGPFWCPVNRPAC (linker 4-11-18 via TBMB) [Compound 111] | 108
6 | [Sar][Sar]ACPWGPF[1Nal]CPVNRPGC (linker 4-11-18 via TBMB) [Compound 96] | 31.3
7 | [Sar][Sar]ACPWGPFWCPVNR[Aib]GC (linker 4-11-18 via TBMB) [Compound 110] | 75
8 | [Sar][Sar]AC[Aib][1Nal]GPFWCPVNRPGC (linker 4-11-18 via TBMB) [Compound 113] | 10
9 | [Sar][Sar]ACP[1Nal]GPFWCPV[dA]RPGC (linker 4-11-18 via TBMB) [Compound 115] | 12.5
10 | [Sar][Sar]ACP[1Nal]GPFWCPVNRP[dA]C (linker 4-11-18 via TBMB) [Compound 116] | 2.95
11 | [Sar][Sar]ACPWGPF[1Nal]CPV[dA]RPGC (linker 4-11-18 via TBMB) [Compound 117] | 53
12 | [Sar][Sar]ACP[1Nal]GPF[1Nal]CPVNRPGC (linker 4-11-18 via TBMB) [Compound 120] | 1.4
13 | [Sar][Sar]ACP[1Nal]GPFWCP[Tle]NRPGC (linker 4-11-18 via TBMB) [Compound 121] | 3.65
14 | [Sar][Sar]ACP[1Nal]GPFWCPVN[hArg]PGC (linker 4-11-18 via TBMB) [Compound 122] | 9.55
15 | [Sar][Sar]ACPWG[Aib]F[1Nal]CPVNRPGC (linker 4-11-18 via TBMB) [Compound 123] | 63
16 | [Sar][Sar]AC[Aib][1Nal]GPFWCPVNRP[dA]C (linker 4-11-18 via TBMB) [Compound 125] | 6.4
17 | [Sar][Sar]ACP[1Nal]G[Aib]FWCP[Tle]NRPGC (linker 4-11-18 via TBMB) [Compound 126] | 15
18 | [Sar][Sar]ACP[1Nal]G[Aib]FWCPV[dA]RPGC (linker 4-11-18 via TBMB) [Compound 127] | 40
19 | [Sar][Sar]ACP[1Nal]G[Aib]FWCPVNRP[dA]C (linker 4-11-18 via TBMB) [Compound 128] | 15
20 | [Sar][Sar]ACP[1Nal]GPFWCP[Tle][dA]RPGC (linker 4-11-18 via TBMB) [Compound 129] | 23
21 | [Sar][Sar]ACP[1Nal]GPFWCP[Tle]NR[Aib]GC (linker 4-11-18 via TBMB) [Compound 131] | 11
22 | [Sar][Sar]ACP[1Nal]GPFWCP[Tle]NRP[dA]C (linker 4-11-18 via TBMB) [Compound 132] | 7.7
23 | [Sar][Sar]ACP[1Nal]GPFWCPV[dA][hArg]PGC (linker 4-11-18 via TBMB) [Compound 133] | 14
24 | [Sar][Sar]ACP[1Nal]GPFWCPVN[hArg]P[dA]C (linker 4-11-18 via TBMB) [Compound 134] | 1.2
25 | [Sar][Sar]AC[Aib][1Nal]G[Aib]FWCPVNR[Aib]GC (linker 4-11-18 via TBMB) [Compound 135] | 43
26 | [Sar][Sar]ACP[1Nal]G[Aib]FWCP[Tle]N[hArg]PGC (linker 4-11-18 via TBMB) [Compound 136] | 23
27 | ADVHCPWGPFWCPVNRPGCA (linker 5-12-19 via TBMB) [Compound 57] | 0.48
28 | ADVTCPWGPFWCPVNRPGCA (linker 5-12-19 via TBMB) [Compound 58] | 1.35
29 | AEGLPCPWGPFWCPVNRPGCA (linker 6-13-20 via TBMB) [Compound 55] | 11.3

Molecular target: T1, Human EphA2 (Ecto)
Experiment: FP competition; competitor Compound 66
Description: as §1

Row | Binder | Ki [nM]
30 | ACPWGPFWCPVNRPGCA (linker 2-9-16 via TBMB) [Compound 69] | 70.1
31 | [Sar][Sar]ACPWGPAWCPVNRPGC (linker 4-11-18 via TBMB) [Compound 83] | 288
32 | ACPWGPFWCPVARPGC (printed: Sar2-ACPWGPFWCPVARPGC; TBMB on the 3 Cys) [Compound 101] | 265
33 | [Sar][Sar]ACPWGPFWCPVNRAGC (linker 4-11-18 via TBMB) [Compound 104] | 194
34 | [Sar][Sar]ACPWGPFWCPVNRPAC (linker 4-11-18 via TBMB) [Compound 111] | 238
35 | [Sar][Sar]ACPWGPF[1Nal]CPVNRPGC (linker 4-11-18 via TBMB) [Compound 96] | 68.1
36 | [Sar][Sar]ACPWGPFWCPVNR[Aib]GC (linker 4-11-18 via TBMB) [Compound 110] | 140
37 | [Sar][Sar]AC[Aib][1Nal]GPFWCPVNRPGC (linker 4-11-18 via TBMB) [Compound 113] | 6.6
38 | [Sar][Sar]ACP[1Nal]GPFWCPV[dA]RPGC (linker 4-11-18 via TBMB) [Compound 115] | 1.64
39 | [Sar][Sar]ACP[1Nal]GPFWCPVNRP[dA]C (linker 4-11-18 via TBMB) [Compound 116] | 3.2
40 | [Sar][Sar]ACPWGPF[1Nal]CPV[dA]RPGC (linker 4-11-18 via TBMB) [Compound 117] | 75
41 | [Sar][Sar]ACP[1Nal]GPF[1Nal]CPVNRPGC (linker 4-11-18 via TBMB) [Compound 120] | 0.98
42 | [Sar][Sar]ACP[1Nal]GPFWCP[Tle]NRPGC (linker 4-11-18 via TBMB) [Compound 121] | 2
43 | [Sar][Sar]ACP[1Nal]GPFWCPVN[hArg]PGC (linker 4-11-18 via TBMB) [Compound 122] | 8
44 | [Sar][Sar]ACPWG[Aib]F[1Nal]CPVNRPGC (linker 4-11-18 via TBMB) [Compound 123] | 46
45 | [Sar][Sar]AC[Aib][1Nal]GPFWCPVNRP[dA]C (linker 4-11-18 via TBMB) [Compound 125] | 0.61

Row | Binder | Ki [nM]
46 | [Sar][Sar]ACP[1Nal]G[Aib]FWCP[Tle]NRPGC (linker 4-11-18 via TBMB) [Compound 126] | 19
47 | [Sar][Sar]ACP[1Nal]G[Aib]FWCPV[dA]RPGC (linker 4-11-18 via TBMB) [Compound 127] | 33
48 | [Sar][Sar]ACP[1Nal]G[Aib]FWCPVNRP[dA]C (linker 4-11-18 via TBMB) [Compound 128] | 16
49 | [Sar][Sar]ACP[1Nal]GPFWCP[Tle][dA]RPGC (linker 4-11-18 via TBMB) [Compound 129] | 15
50 | [Sar][Sar]ACP[1Nal]GPFWCP[Tle]NR[Aib]GC (linker 4-11-18 via TBMB) [Compound 131] | 6.8
51 | [Sar][Sar]ACP[1Nal]GPFWCP[Tle]NRP[dA]C (linker 4-11-18 via TBMB) [Compound 132] | 8.7
52 | [Sar][Sar]ACP[1Nal]GPFWCPV[dA][hArg]PGC (linker 4-11-18 via TBMB) [Compound 133] | 3.7
53 | [Sar][Sar]ACP[1Nal]GPFWCPVN[hArg]P[dA]C (linker 4-11-18 via TBMB) [Compound 134] | 6.15
54 | [Sar][Sar]AC[Aib][1Nal]G[Aib]FWCPVNR[Aib]GC (linker 4-11-18 via TBMB) [Compound 135] | 30
55 | [Sar][Sar]ACP[1Nal]G[Aib]FWCP[Tle]N[hArg]PGC (linker 4-11-18 via TBMB) [Compound 136] | 15
56 | ADVHCPWGPFWCPVNRPGCA (linker 5-12-19 via TBMB) [Compound 57] | 1.2
57 | ADVTCPWGPFWCPVNRPGCA (linker 5-12-19 via TBMB) [Compound 58] | 2.65
58 | ACRVSPEYCPFGPVWCAGAAA (linker 2-9-16 via TBMB) [Compound 34] | 77.4
59 | ACPWGPAWCPVRDTNCA (linker 2-9-16 via TBMB) [Compound 42] | 316
60 | AEGLPCPWGPFWCPVNRPGCA (linker 6-13-20 via TBMB) [Compound 55] | 6.15
61 | ARDDPCPWGPFWCPVNRPGCA (linker 6-13-20 via TBMB) [Compound 62] | 28

Molecular target: T1, Human EphA2 (Ecto)
Experiment: FP competition; competitor Compound 18
Remark: another data set of the same source

Row | Binder | Ki [nM]
62 | Ac-[Sar][Sar]A[dD]VTCP[1Nal]G[Aib]F[1Nal]CP[Tle]N[hArg]PGC (linker 7-14-21 via TBMB) [Compound 182] | 1.16
63 | Ac-[Sar][Sar]A[dD]VTCP[1Nal]G[Aib]F[1Nal]CP[Tle]NR[Aib]GC (linker 7-14-21 via TBMB) [Compound 183] | 1.02
64 | Ac-[Sar][Sar]A[dD]VTCP[1Nal]G[Aib]F[1Nal]CP[Tle]N[hArg]P[dD]C (linker 7-14-21 via TBMB) [Compound 184] | 1.19
65 | [dD]VTCP[1Nal]G[Aib]F[1Nal]CP[Tle]NR[Aib]GC (linker 4-11-18 via TBMB) [Compound 186] | 1.34
66 | Ac-[Sar][Sar]A[dH]DVPCP[1Nal]G[Aib]F[1Nal]CP[Tle]N[hArg]PGC (linker 8-15-22 via TBMB) [Compound 231] | 1.93
67 | Ac-[Sar][Sar]A[dH]DVPCP[1Nal]G[Aib]F[1Nal]CP[Tle]NR[Aib]GC (linker 8-15-22 via TBMB) [Compound 232] | 0.9
68 | [βAla][Sar][Sar][Sar][Sar][Sar][Sar][Sar][Sar][Sar][Sar]H[dD]VPC[Aib][1Nal]G[Aib]F[1Nal]CP[Tle]NRPGC (linker 16-23-30 via TBMB) [Compound 234] | 3.94
69 | [βAla][Sar][Sar][Sar][Sar][Sar][Sar][Sar][Sar][Sar][Sar]H[dD]VPC[Aib][1Nal]G[Aib]F[1Nal]CP[Tle]N[hArg]PGC (linker 16-23-30 via TBMB) [Compound 235] | 2.58
70 | {Ac-βAla}-[Sar][Sar][Sar][Sar][Sar][Sar][Sar][Sar][Sar][Sar]H[dD]VPC[Aib][1Nal]G[Aib]F[1Nal]CP[Tle]N[hArg]P[dD]C (linker 15-22-29 via TBMB) [Compound 237] | 2.4
71 | [βAla][Sar][Sar][Sar][Sar][Sar][Sar][Sar][Sar][Sar][Sar]H[dD]VPC[Aib][1Nal]G[Aib]F[1Nal]CP[Tle]N[hArg][Aib][dD]C (linker 16-23-30 via TBMB) [Compound 238] | 2.83
